{"source": "patent US5637476", "target": "T1, SfiI modification methylase (M.SfiI) (Streptomyces fimbriatus) (UniProt O52513)", "T1 sequence": "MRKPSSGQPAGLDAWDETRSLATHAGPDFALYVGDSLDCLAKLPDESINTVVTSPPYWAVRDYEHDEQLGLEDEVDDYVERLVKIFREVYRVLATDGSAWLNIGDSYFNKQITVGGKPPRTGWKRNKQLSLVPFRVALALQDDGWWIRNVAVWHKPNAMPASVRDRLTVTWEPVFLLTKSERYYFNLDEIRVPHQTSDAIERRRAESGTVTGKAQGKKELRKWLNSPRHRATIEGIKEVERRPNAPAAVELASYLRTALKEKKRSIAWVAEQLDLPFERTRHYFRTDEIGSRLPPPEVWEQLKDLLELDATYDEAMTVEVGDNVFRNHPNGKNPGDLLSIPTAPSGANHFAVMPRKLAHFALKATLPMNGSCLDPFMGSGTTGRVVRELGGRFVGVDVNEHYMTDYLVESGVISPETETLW", "assay": "inhibition", "conditions": "protection from SfiI cleavage; 10 mM EDTA, 0.1 mM AdoMet, 37 C; 0.3M and 0.5M KCl fractions", "data": [{"substance": "T4 DNA", "values": [{"measurement": "activity", "value": 2500, "unit": "units/ml"}]}]}
